Source: US20250009780A1, “AGENTS ENCODING CLDN6 AND CD3 BINDING ELEMENTS FOR TREATING CLDN6-POSITIVE CANCERS” (BIONTECH SE, priority 2021, published 2025)

How the values were obtained:
MDA-MB-231 cell line = assay: T-cell-mediated cytotoxicity assay (bioluminescence), MDA-MB-231; format: cell-based, human; conditions: CLDN6-negative MDA-MB-231; RiboMab02.1-containing mouse serum
Experimental: Human PBMCs from eight healthy donors were co-cultured with luciferase-expressing tumor cells. CLDN6-positive PA-1 (A) or OV-90 (B) cell lines were used as target cells and the CLDN6-negative MDA-MB-231 (A, B) cell line to control for target specificity. The assays were performed in a 384-well plate format with an effector-to-target-cell ratio of 20:1. Bioluminescence of viable tumor cells was measured as readout. Specific lysis percentages of tumor cell killing are presented. RiboMab02.1-containing mouse serum was serially-diluted (10-fold, 10-point; range: 5.0×10^−7 to 500 ng/mL) and added to the co-cultures, followed by incubation for (A) 24 h with PA-1 cells or (B) 48 h with OV-90 cells. Each line represents tumor cell lysis with an individual donor's PBMC sample.
Bioluminescence-based cytotoxicity assays were conducted using luciferase-expressing cell lines.
The CLDN6-positive human ovarian cancer cell lines PA-1 and OV-90 served to determine target-dependent lysis efficiency while the target-negative human breast cancer cell line MDA-MB-231 was used as negative control to confirm target-specific lysis. Human PBMCs from eight different healthy donors were used as effector cells to reflect the donor-dependent heterogeneity of human T-cell responses. […]

human PBMCs (T cells) = assay: T-cell activation assay (CD69/CD25, flow cytometry); format: cell-based
Experimental: Human PBMCs from three healthy donors (effector cells) were cultured in the presence and absence of CLDN6-positive PA-1 cells (target cells) at a 10:1 effector-to-target-cell ratio. RiboMab02.1-containing mouse serum was serially-diluted (10-fold, 10-point; range: 4.0×10^−6 to 4,000 ng/mL) prior to use in the assay. After 48 h of co-incubation, cells were stained with anti-CD5, anti-CD69 and anti-CD25 antibodies for flow cytometric analysis of T cells. Shown here is the total T-cell activation normalized to samples incubated with mock serum from Luc_RNA-LNP-treated mice. Percentages of activated T cells are shown for each individual donor (left) and for all three donors as mean (right). Filled symbols represent values with and black, open symbols without target cells.
RiboMab02.1-containing as well as mock serum samples were obtained from mice administered either with BNT142 or luciferase encoding RNA-LNP (Luc_RNA-LNP; mock). Human PBMCs from three healthy donors were used as effector cells. Serum samples were serially-diluted (10-fold, 10-point), starting at 4,000 ng/mL, and added to PBMCs cultured alone or together with CLDN6-positive PA-1 target cells at an effector-to-target-cell ratio of 10:1. After 48 h of incubation, T cells were analyzed by flow cytometry for surface expression of the early and late activation markers CD69 and CD25, respectively. […] OKT3 positive control led to >50% T-cell activation with and without target cells (data not shown). Upregulation of CD69 on T cells was higher than that of CD25; CD25-positive cells were almost exclusively CD69 double-positive, pointing to an early activation state (data not shown).

human PBMCs = assay: In vitro human cytokine release (multiplex ELISA on T-cell activation assay supernatants); format: cell-based
Experimental: Cytokine concentration values for each donor (means of technical triplicates) are shown. Filled symbols represent values with target cells while open symbols represent values without target cells.
Cell culture supernatants obtained from the T-cell activation assay were analyzed to investigate the RiboMab02.1-dependent induction of on- and off-target cytokine release. The levels of human pro-inflammatory cytokines IFN-γ, IL-1β, IL-2, IL-6, IL-10 and TNF-α were measured using a customized multiplex ELISA kit.

[1] = Repeated-dose PK study of BNT142 in mice; format: in vivo, Balb/cJRj mice
Experimental: Female Balb/cJRj mice (n=4) were injected IV with 10 or 30 μg BNT142 or 30 μg Luc_RNA-LNP as control once weekly for a total of five administrations at the time points indicated by the horizontal dotted lines. Blood was drawn from mice at baseline (0 h), 6 h after (6, 174, 342, 510, and 678 h) and 24 h before (144, 312, 480, and 648 h) each BNT142 or saline administration, respectively. A final blood draw was done 816 h after the first BNT142/saline administration.
Treatment groups received five IV bolus injections of 10 or 30 μg BNT142 (approximately 0.4 and 1.2 mg/kg, respectively) or 30 μg Luc_RNA-LNP at a weekly interval. Serum samples were prepared from blood drawn from the animals at 6 h after (tmax) and 24 h prior to (last detectable concentration [Ctrough]) each BNT142 administration. […] The last blood samples were drawn 816 h (34 days) after the first injection.

[2] = cynomolgus monkey, in vivo

Substance: RiboMab02.1: Fab-(scFv)2-based bispecific antibody (tribody) against CLDN6 and CD3 encoded by BNT142; SEQ ID NOs: 4 and 6; C53S
- target-independent lysis (MDA-MB-231 cell line): did not induce target-independent (non-specific) lysis
- off-target T-cell activation (human PBMCs (T cells); PBMCs without target cells, up to 40 ng/mL RiboMab02.1, 48 h): No off-target T-cell activation
- concentration above EC50 up to which T-cell activation is target-dependent (human PBMCs (T cells); onset of unspecific T-cell activation relative to EC50): > 1,500 fold
- cytokine induction (human PBMCs; absence of CLDN6-positive PA-1 target cells): no cytokine induction was observed
- IL-6 induction (human PBMCs; absence of target cells, highest concentration of RiboMab02.1): low induction of IL-6 seen with one donor
- release of IFN-γ, IL-1β, IL-2, IL-6, IL-10 and TNF-α (human PBMCs; presence of PA-1 target cells, dose- and donor-dependent): induced the release of all cytokines
- RiboMab02.1 peak level (Cmax) in serum ([1]; 10 μg BNT142 weekly x5, 6 h after last injection): up to 7.4 μg/mL
- RiboMab02.1 translation between subsequent injections ([1]; either BNT142 dose): no loss in RiboMab02.1 translation
- Ctrough lower than Cmax ([1]; within 7 days of each injection): approximately 130 fold
- anticipated full clearance from the human body (five half-lives) [2]: 135 to 185 h
